T1: Abp1 SH3 (ABP1_YEAST), P15891
T1 chain: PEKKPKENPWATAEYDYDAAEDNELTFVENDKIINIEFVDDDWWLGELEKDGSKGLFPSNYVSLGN


Biological target: T1, Abp1 SH3 (ABP1_YEAST), P15891
Experiment: SPOT array

Binder | normalised SPOT signal, Boehringer light units (BLU); mean over the file's lines of this peptide
TTKKQENPQWLRP [YBL014C 33-45] | 126
VDGLSNPPTLLRP [YGL169W 237-249] | 21.8
VADVQWSPHPAKP [YDR128W 70-82] | 66.3
TTTYKSRPDRPKP [YBR289W 757-769] | 1770
VDGGMAFNPDPKKP [YER095W 331-344] | 74.7
TSLFDNIPSIYRP [YGL169W 124-136] | 43.4
TLITFMVPRFDKP [YBR115C 740-752] | 0
TSSSPLGPSAAKP [YDL224C 233-245] | 133
TYVHAWDMRSPHRP [YDR128W 137-150] | 489
VAIIYYKPYLDRP [YGL139W 508-520] | 76.3
TYFSVEAPPSIRP [YEL044W 99-111] | 76.1
VDDYNASFELPLKP [YGL134W 27-40] | 95.4
TSKMLKPPKQRRP [YDR389W 475-487] | 617
TKVTNSKFRTPLRP [YBL009W 142-155] | 137
VDQLDTASIHPSRP [YGL115W 118-131] | 110
VEKINTFKTLPTKP [YDL202W 178-191] | 385
TPPLESGPLFKRP [YDR379W 561-573] | 55.6
VSDKTKKKTVPVKP [YBL017C 681-694] | 171
TKVSNEYPNSPKP [YGL122C 280-292] | 146
VAFILLTPIHSRP [YGL160W 214-226] | 48.3
VEVDMSLPENQKP [YBR111C 165-177] | 20.2
TLTSSSNPTIPKP [YBL047C 1258-1270] | 129
TNIIDKGVQSPPKP [YDR176W 125-138] | 140
VEYDYVDPRQLKP [YGL236C 383-395] | 51.9
TPLSKPKPFMHKP [YBL031W 191-203] | 11300

Further lines, results first:

normalised SPOT signal, Boehringer light units (BLU); mean over the file's lines of this peptide | Binder
166 | TTKGENIKITPQKP [YJR122W 470-483]
172 | VDRGVGEWYKPDRP [YNL108C 86-99]
73 | VERNFTDPGDGKP [YMR238W 135-147]
352 | TVQRYYKTTVPTKP [YKR084C 138-151]
40.3 | TNTVDVTPKENKP [YOL148C 219-231]
176 | TYQTLHSPKKFKP [YOR022C 44-56]
104 | TTVPQQLPLEPLKP [YOR329C 400-413]
93.7 | TNMEFQYPGTSKP [YLR249W 670-682]
27.7 | VEQSATIPESIKP [YGL238W 669-681]
89.3 | VEEYWGKKFEPERP [YJR137C 1184-1197]
935 | VSGTRQSPIPKKP [YML007W 309-321]
38.3 | TTPTIETPISSKP [YJL005W 370-382]
451 | TMFSGVSAFVPNRP [YJR061W 698-711]
82 | VEFKKDLEEGPTKP [YML074C 275-288]
61 | TLRLLYNPSLSKP [YHR100C 9-21]
65.5 | TVEYIRPETLPKKP [YNR051C 370-383]
66.1 | VDRDSAIFYLPQRP [YKL188C 543-556]

normalised SPOT signal, Boehringer light units (BLU); mean over the file's lines of this peptide | Binder
3.6 | TVPTNHVPNYIKP [YGR165W 78-90]
191 | TVIYANAPIEEKP [YLR414C 249-261]
124 | TRKSVNIKSWPLKP [YNL226W 110-123]
93.9 | VDTFEDEPDKLKP [YGR210C 280-292]
54 | TLAKELYPGNFRP [YPL015C 81-93]
78.1 | TNSNVPDPSTPSKP [YML016C 58-71]
3940 | TSKHWVLPPRPRP [YKL109W 65-77]
156 | VAIIRYKPYLDRP [YPL221W 502-514]
193 | TLEYLRSPKLYKP [YJR024C 74-86]
356 | TVKKPARPWRAKP [YKL220C 449-461]
749 | TNGPRYSPQNPRP [YMR124W 350-362]
133 | TTAQDGSSALPSKP [YLR431C 386-399]
169 | TVADTLQPGLPHKP [YKL148C 463-476]
3360 | TMNTIYVPPLRRP [YGR127W 236-248]
20.9 | VELVTVRPLDEKP [YJL105W 434-446]
83.1 | TTGLNGSPTRGKP [YLL003W 876-888]
64.4 | VENLGTNVTPPLRP [YPL242C 22-35]
